{
  "source": "paper PMC7712654",
  "about": "“Docking of acetyl-CoA carboxylase to the plastid envelope membrane attenuates fatty acid production in plants” (Nature Communications, 2020)",
  "molecular_target": "T1, α-CT coiled-coil domain fused with HIS tag (α-CT-His), fluorescently labeled (Arabidopsis thaliana, fluorescently labeled using His-tag labeling kit (NanoTemper, MO-L008))",
  "T1 construct": "α-carboxyltransferase (α-CT), Arabidopsis thaliana, At2g38040, C-terminus / coiled-coil domain; also called C-terminus of α-CT; labeled α-CT coiled-coil domain; source: expressed in Luria Broth with IPTG (pET30a), purified on nickel agarose resin",
  "experiment": "MST; 100 nM α-CT-His labeled with His-tag labeling kit, mixed with serial dilutions of CTI in PBS buffer; 100% LED power, high MST power, NanoTemper Monolith NT.115",
  "details": "both partners purified",
  "data": [
    {"binder": "coiled-coil domain of CTI1 fused with HIS tag (domain or fragment) PQISKAIAGADRKDLMRKLPKFIYDEEKALEKTRKVLAEKIAQLNSAIDDVSSQLKSEDTPNGAALSTDEIEATA", "values": [
      {"measurement": "fold higher affinity than CTI2 (from KD values)", "result": 100, "unit": "fold"},
      {"measurement": "fold higher affinity than CTI3 (from KD values)", "result": 10, "unit": "fold"}
    ]}
  ]
}
